The chains are these.
B1: Treponema denticola Cas2 (natural protein)
chain: MRVIVFFDLPVITPENRHNYSVFRKYLIKSGFIMQQKSVYSKLVLNLTNRDSIVKSIEKNKPPEGLVEVLTVTEKQYAKMEIIIGESKTEYLNTDERLVVL
notes: Cas2 of Treponema denticola, type II-A CRISPR-Cas system; gene amplified and cloned into a modified pET32a vector with a precession enzyme cleavage site; A GST-tagged Cas2 (pGEX-6p-1, GST removed) was also made; Dimer by the crystal structure; also called Td-Cas2; WT-Cas2; not shown: Trx, N-terminal, cleaved

Series [1] deals with the molecule itself. Put plainly: crystal structure; Cas2 with peptide at molar ratio 1:1.2, hanging drop, 15% PEG3350, 10% glycerol, 0.1 M Tris pH 6.4; 2.0 Å.
Series [2] addresses T1, Treponema denticola Cas2 (Treponema denticola, UniProt Q73QW4 1-101).
T1 chain: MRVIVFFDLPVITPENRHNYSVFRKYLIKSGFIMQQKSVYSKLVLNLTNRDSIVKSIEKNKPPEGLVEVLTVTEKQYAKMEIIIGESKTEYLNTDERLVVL
The series is described as follows: ITC. (Isothermal titration calorimetry measures the heat released or taken up as one component is titrated into another.)

The target of series [3] is Treponema denticola Cas2 (Treponema denticola) (UniProt Q73QW4). The series is described as follows: ITC; AcrVA5 (400 µM) injected into 50 µM Cas2 in the sample cell, 25 °C, 20 mM Tris pH 7.4, 200 mM NaCl; also AcrVA5 mutants and AcrVA5 peptides with Cas2.
In series [4] the target is B1. The description is as above. To be noted: both partners purified.

Three molecules from article PMC11021501, “Insights into the inhibition of protospacer integration via direct interaction between Cas2 and AcrVA5” (Nature Communications, 2024) can be followed below.

As usually defined, the stoichiometry N is the number of molecules, sites or subunits per partner or assembly. As a reminder, the Kd is a measure of binding affinity in units of concentration. Lower therefore signals tighter binding.

As for B1, the “stoichiometry N” value in series [1] was found to be 2.

B2: AcrVA5-L5A (natural protein)
chain: MKIEASGGYICYSIEEDEVTIDMVEVTTKRQGIGSQLIDMVKDVAREVGLPIGLYAYPQDDSISQEDLIEFYFSNDFEYDPDDVDGRLMRWS
On to B2, for which the results for the dissociation constant (Kd) (with Treponema denticola Cas2 [2]; in series [3]) were 1060 nM and 1300 nM, respectively.

B3: Moraxella bovoculi AcrVA5 (natural protein)
chain: MKIELSGGYICYSIEEDEVTIDMVEVTTKRQGIGSQLIDMVKDVAREVGLPIGLYAYPQDDSISQEDLIEFYFSNDFEYDPDDVDGRLMRWS
modifications: C-terminal His-tag left out; the vector-derived PLGS of 6IUF is dropped, so entity number = AcrVA5 number + 4
As for B3, in the series with Treponema denticola Cas2 [4], the Ka was found to be 939000 M⁻¹, the Kd came to 1100 nM, the dH came out at 4.23 ± 0.165 kcal/mol and the “stoichiometry N” value was 0.596 ± 0.0158.
